This is an account of results in the supplement of paper PMC10567573.

To fix the notation:
B1: ZNF232 (parent)
chain: FPKSEQVYLHFLSVVTEDGPEPKD
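Further: lentivirally expressed fusions sorted by FACS into six bins by GFP to DsRed ratio, PSI derived from sequencing read proportions per bin multiplied by bin number.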

Variants of B1 are the subject of this data set. The experiment in a line: protein stability index of a GFP-peptide fusion (GPS, HEK-293T) (PSI 1-6); higher = more stable. As to conditions: c terminus: a fixed tail appended.
Consider FPKSEQVYLHFLSVITEDGPEPKD [V15I], for which the protein stability index was 1.89.

Turning to FPKSEQVYLHFLSVDTEDGPEPKD [V15D], the protein stability index stood at 3.45.

FPKSEQVYLHFLSVPTEDGPEPKD [V15P]: the protein stability index came out at 2.08.

With FPKSEQVYLHFLSVFTEDGPEPKD [V15F], the protein stability index was found to be 2.44.

As for FPKSEQVYLHFLSVCTEDGPEPKD [V15C], the protein stability index is 1.72.

Take FPKSEQVYLHFLSVYTEDGPEPKD [V15Y]: the protein stability index came out at 2.43.

For the variant FPKSEQVYLHFLSVETEDGPEPKD [V15E], the protein stability index turned out to be 3.1.

As for FPKSEQVYLHFLSVRTEDGPEPKD [V15R], the protein stability index stood at 3.32.

For the variant FPKSEQVYLHFLSVNTEDGPEPKD [V15N], the protein stability index was found to be 2.36.

On to FPKSEQVYLHFLSVSTEDGPEPKD [V15S], for which the protein stability index was 2.47.

On to FPKSEQVYLHFLSVTTEDGPEPKD [V15T], for which the protein stability index worked out at 2.1.

On to FPKSEQVYLHFLSVMTEDGPEPKD [V15M], for which the protein stability index was 2.88.

Turning to FPKSEQVYLHFLSVWTEDGPEPKD [V15W], the protein stability index was found to be 1.47.

FPKSEQVYLDFLSVVTEDGPEPKD [H10D]: the protein stability index was determined as 3.04.

As for FPKSEQVYLSFLSVVTEDGPEPKD [H10S], the protein stability index amounted to 1.95.

Consider FPKSEQVYLIFLSVVTEDGPEPKD [H10I], for which the protein stability index stood at 1.26.

With FPKSEQVYLAFLSVVTEDGPEPKD [H10A], the protein stability index amounted to 3.29.

On to FPKSEQVYLRFLSVVTEDGPEPKD [H10R], for which the protein stability index is 4.1.

As for FPKSEQVYLCFLSVVTEDGPEPKD [H10C], the protein stability index was 2.81.

Regarding FPKSEQVYLGFLSVVTEDGPEPKD [H10G], the protein stability index amounted to 2.24.

For FPKSEQVYLMFLSVVTEDGPEPKD [H10M], the protein stability index came to 2.65.

With FPKSEQVYLQFLSVVTEDGPEPKD [H10Q], the protein stability index is 2.36.

Take FPKSEQVYLKFLSVVTEDGPEPKD [H10K]: the protein stability index was determined as 2.73.

Turning to FPKSEQVYLEFLSVVTEDGPEPKD [H10E], the protein stability index was determined as 3.46.

For the variant FPKSEQVYLVFLSVVTEDGPEPKD [H10V], the protein stability index amounted to 1.94.

Turning to FPKSEQVYLPFLSVVTEDGPEPKD [H10P], the protein stability index is 1.94.

In the case of FPKSEQVYLHFLSVVEEDGPEPKD [T16E], the protein stability index worked out at 2.38.

On to FPKSEQVYLHFLSVVFEDGPEPKD [T16F], for which the protein stability index came out at 1.63.

For FPKSEQVYLHFLSVVHEDGPEPKD [T16H], the protein stability index is 2.68.

For FPKSEQVYLHFLSVVDEDGPEPKD [T16D], the protein stability index turned out to be 2.26.

Take FPKSEQVYLHFLSVVCEDGPEPKD [T16C]: the protein stability index was determined as 2.47.

FPKSEQVYLHFLSVVAEDGPEPKD [T16A]: the protein stability index is 2.31.

Regarding FPKSEQVYLHYLSVVTEDGPEPKD [F11Y], the protein stability index was 2.29.

As for FPKSEQVYLHCLSVVTEDGPEPKD [F11C], the protein stability index came out at 1.76.

On to FPKSEQVYLHRLSVVTEDGPEPKD [F11R], for which the protein stability index turned out to be 2.83.

Regarding FPKSEQVYLHNLSVVTEDGPEPKD [F11N], the protein stability index was found to be 3.18.

With FPKSEQVYLHMLSVVTEDGPEPKD [F11M], the protein stability index came out at 2.06.

In the case of FPKSEQVYLHWLSVVTEDGPEPKD [F11W], the protein stability index turned out to be 2.08.

Regarding FPKSEQVYLHPLSVVTEDGPEPKD [F11P], the protein stability index stood at 3.74.

As to FPKSEQVYLHKLSVVTEDGPEPKD [F11K], the protein stability index was determined as 3.17.

Consider FPKSEQVYLHSLSVVTEDGPEPKD [F11S], for which the protein stability index worked out at 2.65.

As to FPKSEQVYLHLLSVVTEDGPEPKD [F11L], the protein stability index is 2.41.

Take FPKSEQVYLHTLSVVTEDGPEPKD [F11T]: the protein stability index was found to be 2.27.

For the variant FPKSEQVYLHGLSVVTEDGPEPKD [F11G], the protein stability index is 3.61.

On to FPKSEQVYLHHLSVVTEDGPEPKD [F11H], for which the protein stability index worked out at 2.99.

As to FPKSEQVYLHALSVVTEDGPEPKD [F11A], the protein stability index is 2.49.

Take FPKSEQVYLHELSVVTEDGPEPKD [F11E]: the protein stability index stood at 4.55.

Consider FPKSEQVYLHDLSVVTEDGPEPKD [F11D], for which the protein stability index amounted to 3.73.

In the case of FPKSERVYLHFLSVVTEDGPEPKD [Q6R], the protein stability index was determined as 1.85.

For FPKSEAVYLHFLSVVTEDGPEPKD [Q6A], the protein stability index amounted to 2.3.

With FPKSETVYLHFLSVVTEDGPEPKD [Q6T], the protein stability index amounted to 2.37.

Consider FPKSEVVYLHFLSVVTEDGPEPKD [Q6V], for which the protein stability index amounted to 1.21.

For the variant FPKSESVYLHFLSVVTEDGPEPKD [Q6S], the protein stability index amounted to 1.41.

As to FPKSEHVYLHFLSVVTEDGPEPKD [Q6H], the protein stability index is 1.88.

As for FPKSEPVYLHFLSVVTEDGPEPKD [Q6P], the protein stability index was 1.92.

Consider FPKSENVYLHFLSVVTEDGPEPKD [Q6N], for which the protein stability index came out at 2.07.

In the case of FPKSECVYLHFLSVVTEDGPEPKD [Q6C], the protein stability index was determined as 2.19.

In the case of FPKSEMVYLHFLSVVTEDGPEPKD [Q6M], the protein stability index amounted to 1.6.

As to FPKSEKVYLHFLSVVTEDGPEPKD [Q6K], the protein stability index is 1.86.

Consider FPKSEEVYLHFLSVVTEDGPEPKD [Q6E], for which the protein stability index came out at 2.6.

On to FPKSEYVYLHFLSVVTEDGPEPKD [Q6Y], for which the protein stability index worked out at 1.47.

Consider FPKSEFVYLHFLSVVTEDGPEPKD [Q6F], for which the protein stability index amounted to 1.9.

Take FPKSEDVYLHFLSVVTEDGPEPKD [Q6D]: the protein stability index was 2.87.

As for FPKSEIVYLHFLSVVTEDGPEPKD [Q6I], the protein stability index was 2.23.

For FPKSELVYLHFLSVVTEDGPEPKD [Q6L], the protein stability index was 2.18.

For FPKSEQVYVHFLSVVTEDGPEPKD [L9V], the protein stability index turned out to be 1.71.

For FPKSEQVYTHFLSVVTEDGPEPKD [L9T], the protein stability index stood at 2.62.

Consider FPKSEQVYFHFLSVVTEDGPEPKD [L9F], for which the protein stability index was found to be 1.73.

As for FPKSEQVYQHFLSVVTEDGPEPKD [L9Q], the protein stability index was determined as 2.78.

With FPKSEQVYWHFLSVVTEDGPEPKD [L9W], the protein stability index is 1.71.

As to FPKSEQVYHHFLSVVTEDGPEPKD [L9H], the protein stability index came to 2.53.

As to FPKSEQVYSHFLSVVTEDGPEPKD [L9S], the protein stability index was found to be 2.32.

As for FPKSEQVYPHFLSVVTEDGPEPKD [L9P], the protein stability index is 2.58.

For FPKSEQVYKHFLSVVTEDGPEPKD [L9K], the protein stability index was 2.5.

In the case of FPKSEQVYIHFLSVVTEDGPEPKD [L9I], the protein stability index came to 1.83.

Consider FPKSEQVYMHFLSVVTEDGPEPKD [L9M], for which the protein stability index amounted to 1.29.

In the case of FPKSEQVYRHFLSVVTEDGPEPKD [L9R], the protein stability index was found to be 2.11.

For FPKSEQVYEHFLSVVTEDGPEPKD [L9E], the protein stability index turned out to be 3.54.

As to FPKSEQVYYHFLSVVTEDGPEPKD [L9Y], the protein stability index is 2.53.

With FPKSEQVDLHFLSVVTEDGPEPKD [Y8D], the protein stability index was 3.55.

FPKSEQVLLHFLSVVTEDGPEPKD [Y8L]: the protein stability index worked out at 2.14.

Regarding FPKSEQVVLHFLSVVTEDGPEPKD [Y8V], the protein stability index was 1.98.

For the variant FPKSEQVGLHFLSVVTEDGPEPKD [Y8G], the protein stability index was determined as 2.15.

As to FPKSEQVHLHFLSVVTEDGPEPKD [Y8H], the protein stability index was 2.31.

With FPKSEQVELHFLSVVTEDGPEPKD [Y8E], the protein stability index is 3.09.

For FPKSEQVALHFLSVVTEDGPEPKD [Y8A], the protein stability index came to 2.46.

Turning to FPKSEQVNLHFLSVVTEDGPEPKD [Y8N], the protein stability index came out at 2.01.

As to FPKSEQVFLHFLSVVTEDGPEPKD [Y8F], the protein stability index amounted to 1.88.

As to FPKSEQVILHFLSVVTEDGPEPKD [Y8I], the protein stability index stood at 2.27.

As to FPKSEQVWLHFLSVVTEDGPEPKD [Y8W], the protein stability index is 2.2.

In the case of FPKSEQVTLHFLSVVTEDGPEPKD [Y8T], the protein stability index was determined as 2.13.

Consider FPKSEQVQLHFLSVVTEDGPEPKD [Y8Q], for which the protein stability index was found to be 3.33.

Regarding FPKSEQVPLHFLSVVTEDGPEPKD [Y8P], the protein stability index was found to be 3.14.

Consider FPKSEQVCLHFLSVVTEDGPEPKD [Y8C], for which the protein stability index worked out at 2.49.
